These results are taken from the supplement of paper PMC10724198.

± gives the standard deviation of the averaged measurements.

Data set [1] concerns Saccharomyces cerevisiae. The data set can be described thus: protein stability index of tFT-peptide fusion (C-terminal peptide) (PSI (0-1 scale)); higher = more stable (slower turnover). Conditions: genetic background: wild type; temperature: 30 C.
Data set [2] deals with Saccharomyces cerevisiae. The data set is described as above. Here is the method:
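MPS profiling in S. cerevisiae of the tFT-X12 degron library: putative degron peptides plus stable controls, 12 aa, fused to the C-terminus of a sfGFP-mCherry timer. Cells are FACS-sorted into 8 mCherry/sfGFP bins and deep-sequenced. PSI runs from 0 (unstable) to 1 (stable). Backgrounds are wild type, das1Δ and doa10Δ at 30 °C, and wild type, das1Δ, cdc34-1 and cdc53-1 at 37 °C; 2-3 technical replicates each.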

The mark [3] stands for this setting: genetic background: cdc34-1, temperature: 37 C.
Where [4] appears, read: genetic background: cdc53-1, temperature: 37 C.
Where [5] appears, read: genetic background: das1 deletion, temperature: 30 C.
[6] abbreviates: genetic background: das1 deletion, temperature: 37 C.
[7] abbreviates: genetic background: doa10 deletion, temperature: 30 C.
Where [8] appears, read: genetic background: wild type, temperature: 30 C.
[9] abbreviates: genetic background: wild type, temperature: 37 C.
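Also: PSI is a weighted mean of sequencing reads over stability bins, variants kept only with over 10 reads, mCherry proximal and sfGFP distal, peptide attached via GGGS linker.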

Consider FFDLSLYSLCLC, for which the protein stability index in the data set on Saccharomyces cerevisiae [1] is 0.378 ± 0.064; in the data set with Saccharomyces cerevisiae [2] (setting [3]), 0.623 ± 0.019; in the data set with Saccharomyces cerevisiae [2] (setting [4]) it was 0.69 ± 0.059; in the data set on Saccharomyces cerevisiae [2] (setting [5]) it was 0.466 ± 0.013; with Saccharomyces cerevisiae [2] (setting [6]) it was 0.6476 ± 0.0029; with Saccharomyces cerevisiae [2] (setting [7]), 0.229 ± 0.009. Further, the protein stability index stood at 0.271 ± 0.029 in the data set on Saccharomyces cerevisiae [2] (setting [8]) and 0.4649 ± 0.0011 in the data set with Saccharomyces cerevisiae [2] (setting [9]).

Take FFFFPVYFIFVV: the protein stability index is 0.311 ± 0.0065 in the data set with Saccharomyces cerevisiae [1]; 0.272 ± 0.014 in the data set with Saccharomyces cerevisiae [2] (setting [3]); 0.288 ± 0.05 in the data set with Saccharomyces cerevisiae [2] (setting [4]); 0.259 ± 0.02 in the data set with Saccharomyces cerevisiae [2] (setting [5]); 0.409 ± 0.013 in the data set on Saccharomyces cerevisiae [2] (setting [6]); 0.259 ± 0.01 with Saccharomyces cerevisiae [2] (setting [7]). Besides, the protein stability index in the data set with Saccharomyces cerevisiae [2] (setting [8]) turned out to be 0.232 ± 0.016; in the data set with Saccharomyces cerevisiae [2] (setting [9]), 0.32 ± 0.0059.

Consider FFFFSMFSFFIP, for which the protein stability index came to 0.477 ± 0.054 with Saccharomyces cerevisiae [1]; 0.503 ± 0.056 in the data set with Saccharomyces cerevisiae [2] (setting [3]); 0.576 ± 0.0068 in the data set on Saccharomyces cerevisiae [2] (setting [4]); 0.485 ± 0.017 in the data set on Saccharomyces cerevisiae [2] (setting [5]); 0.564 ± 0.013 in the data set with Saccharomyces cerevisiae [2] (setting [6]); 0.438 ± 0.013 in the data set on Saccharomyces cerevisiae [2] (setting [7]). The protein stability index turned out to be 0.466 ± 0.031 with Saccharomyces cerevisiae [2] (setting [8]) and 0.531 ± 0.0034 in the data set on Saccharomyces cerevisiae [2] (setting [9]).

As to FFFVLVSGWWGV, the protein stability index with Saccharomyces cerevisiae [1] turned out to be 0.36 ± 0.041; in the data set on Saccharomyces cerevisiae [2] (setting [3]), 0.181 ± 0.0054; in the data set with Saccharomyces cerevisiae [2] (setting [4]), 0.344 ± 0.059; in the data set with Saccharomyces cerevisiae [2] (setting [5]), 0.237 ± 0.027; with Saccharomyces cerevisiae [2] (setting [6]), 0.472 ± 0.044; in the data set on Saccharomyces cerevisiae [2] (setting [7]) it was 0.205 ± 0.022. For the same sequence, the protein stability index was 0.221 ± 0.021 with Saccharomyces cerevisiae [2] (setting [8]) and 0.374 ± 0.013 with Saccharomyces cerevisiae [2] (setting [9]).

FFLDRLVIRLIA: the protein stability index was 0.105 ± 0.052 in the data set on Saccharomyces cerevisiae [1]; 0.1487 ± 0.00028 with Saccharomyces cerevisiae [2] (setting [3]); 0.173 ± 0.0047 in the data set on Saccharomyces cerevisiae [2] (setting [4]); 0.248 ± 0.029 with Saccharomyces cerevisiae [2] (setting [5]); 0.383 ± 0.0071 in the data set with Saccharomyces cerevisiae [2] (setting [6]); 0.0576 ± 0.024 in the data set on Saccharomyces cerevisiae [2] (setting [7]). Further, the protein stability index amounted to 0.0715 ± 0.011 with Saccharomyces cerevisiae [2] (setting [8]) and 0.0735 ± 0.014 in the data set on Saccharomyces cerevisiae [2] (setting [9]).

As to FFLFFLSFGCFL, the protein stability index with Saccharomyces cerevisiae [1] came to 0.529 ± 0.048; in the data set with Saccharomyces cerevisiae [2] (setting [3]), 0.489 ± 0.078; with Saccharomyces cerevisiae [2] (setting [4]), 0.533 ± 0.031; in the data set on Saccharomyces cerevisiae [2] (setting [5]) it was 0.421 ± 0.029; in the data set on Saccharomyces cerevisiae [2] (setting [6]), 0.5391 ± 0.0019; with Saccharomyces cerevisiae [2] (setting [7]) it was 0.4551 ± 0.0028. The protein stability index with Saccharomyces cerevisiae [2] (setting [8]) was 0.459 ± 0.032; with Saccharomyces cerevisiae [2] (setting [9]), 0.505 ± 0.016.

Take FFLKPVPSLFLC: the protein stability index with Saccharomyces cerevisiae [1] was found to be 0.14 ± 0.014; in the data set with Saccharomyces cerevisiae [2] (setting [3]), 0.388 ± 0.015; in the data set with Saccharomyces cerevisiae [2] (setting [4]) it was 0.5971 ± 0.005; in the data set with Saccharomyces cerevisiae [2] (setting [5]), 0.519 ± 0.021; in the data set with Saccharomyces cerevisiae [2] (setting [6]), 0.6657 ± 0.0034; in the data set with Saccharomyces cerevisiae [2] (setting [7]), 0.0796 ± 0.014. The protein stability index with Saccharomyces cerevisiae [2] (setting [8]) amounted to 0.0677 ± 0.0064; in the data set with Saccharomyces cerevisiae [2] (setting [9]), 0.0767 ± 0.016.

Turning to FFLVLWSSLLSP, the protein stability index in the data set with Saccharomyces cerevisiae [1] is 0.454 ± 0.036; in the data set with Saccharomyces cerevisiae [2] (setting [3]) it was 0.457 ± 0.025; with Saccharomyces cerevisiae [2] (setting [4]), 0.5545 ± 0.00086; with Saccharomyces cerevisiae [2] (setting [5]), 0.378 ± 0.035; in the data set with Saccharomyces cerevisiae [2] (setting [6]) it was 0.572 ± 0.006; in the data set on Saccharomyces cerevisiae [2] (setting [7]) it was 0.3584 ± 0.0021. In addition, the protein stability index in the data set with Saccharomyces cerevisiae [2] (setting [8]) was found to be 0.386 ± 0.033; with Saccharomyces cerevisiae [2] (setting [9]), 0.5441 ± 0.0011.

Turning to FFRPWRLVGCLV, the protein stability index was found to be 0.331 ± 0.065 in the data set on Saccharomyces cerevisiae [1]; 0.263 ± 0.0038 with Saccharomyces cerevisiae [2] (setting [3]); 0.312 ± 0.011 with Saccharomyces cerevisiae [2] (setting [4]); 0.265 ± 0.024 in the data set on Saccharomyces cerevisiae [2] (setting [5]); 0.3692 ± 0.0036 with Saccharomyces cerevisiae [2] (setting [6]); 0.189 ± 0.017 in the data set with Saccharomyces cerevisiae [2] (setting [7]). In addition, the protein stability index turned out to be 0.215 ± 0.018 in the data set on Saccharomyces cerevisiae [2] (setting [8]) and 0.266 ± 0.02 in the data set with Saccharomyces cerevisiae [2] (setting [9]).
